According to publication PMC10454739, “Further Developments towards a Minimal Potent Derivative of Human Relaxin-2” (International Journal of Molecular Sciences, 2023):

How the values were obtained:
[1] = target: T1, 7BP (RXFP1 ectodomain fused to the single trans-membrane-spanning domain of CD8) (Homo sapiens, UniProt Q9HBX9); experiment: Competitive binding assay with Eu3+-labeled H2 relaxin in HEK-7BP cells; details: whole-cell competition binding vs Eu3+-labeled H2 relaxin, HEK cells expressing 7BP; one-site fit; mean ± S.E.M., n of experiments in brackets
T1 construct: contains the RXFP1 ectodomain fused to the single trans-membrane-spanning domain of CD8; expressed in transfected cells; host or cells: HEK cells (HEK-7BP)
T1 sequence (Q9HBX9 1-409 limits assumed): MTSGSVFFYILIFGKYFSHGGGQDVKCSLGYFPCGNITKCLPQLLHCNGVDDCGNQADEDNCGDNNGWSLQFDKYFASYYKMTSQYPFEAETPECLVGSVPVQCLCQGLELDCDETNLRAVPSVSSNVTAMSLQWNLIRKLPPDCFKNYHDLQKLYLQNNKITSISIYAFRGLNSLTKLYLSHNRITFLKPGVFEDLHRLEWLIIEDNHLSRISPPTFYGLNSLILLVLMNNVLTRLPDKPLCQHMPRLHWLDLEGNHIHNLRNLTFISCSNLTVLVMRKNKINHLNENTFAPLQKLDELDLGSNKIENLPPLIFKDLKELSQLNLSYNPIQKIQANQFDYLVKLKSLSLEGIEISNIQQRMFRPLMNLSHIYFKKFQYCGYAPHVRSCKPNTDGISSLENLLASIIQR
Protocol: Human embryonic kidney (HEK-293T) cells stably transfected with RXFP1 were cultured in RPMI 1640 medium supplemented with 10% fetal calf serum, 100 μg mL^−1 penicillin, 100 μg mL^−1 streptomycin, and 2 mM of L-glutamine and plated into 96-well plates pre-coated with poly-L-lysine for whole-cell binding assays (Merck, Darmstadt, Germany). Competition binding experiments using Eu^3+-labeled H2 relaxin in the absence or presence of increasing concentrations of unlabeled H2 relaxin B-chain derivatives were conducted as previously described [13]. All data are presented as the mean ± S.E.M. of the % specific binding of triplicate wells, repeated in at least three separate experiments, and curves were fitted using one-site binding curves in GraphPad Prism 9 (GraphPad Inc., San Diego, CA, USA).

[2] = target: T2, RXFP1 (Homo sapiens, UniProt Q9HBX9); experiment: cAMP activity assay in HEK-RXFP1 cells (pCRE β-gal reporter); assay type: cell-based; details: HEK-RXFP1 cells stably transfected with pCRE β-gal reporter, 37 °C for 6 h; four-parameter fit; mean ± S.E.M., n in brackets
T2 construct: expressed in transfected cells; host or cells: HEK-293T
T2 sequence (Q9HBX9 1-757): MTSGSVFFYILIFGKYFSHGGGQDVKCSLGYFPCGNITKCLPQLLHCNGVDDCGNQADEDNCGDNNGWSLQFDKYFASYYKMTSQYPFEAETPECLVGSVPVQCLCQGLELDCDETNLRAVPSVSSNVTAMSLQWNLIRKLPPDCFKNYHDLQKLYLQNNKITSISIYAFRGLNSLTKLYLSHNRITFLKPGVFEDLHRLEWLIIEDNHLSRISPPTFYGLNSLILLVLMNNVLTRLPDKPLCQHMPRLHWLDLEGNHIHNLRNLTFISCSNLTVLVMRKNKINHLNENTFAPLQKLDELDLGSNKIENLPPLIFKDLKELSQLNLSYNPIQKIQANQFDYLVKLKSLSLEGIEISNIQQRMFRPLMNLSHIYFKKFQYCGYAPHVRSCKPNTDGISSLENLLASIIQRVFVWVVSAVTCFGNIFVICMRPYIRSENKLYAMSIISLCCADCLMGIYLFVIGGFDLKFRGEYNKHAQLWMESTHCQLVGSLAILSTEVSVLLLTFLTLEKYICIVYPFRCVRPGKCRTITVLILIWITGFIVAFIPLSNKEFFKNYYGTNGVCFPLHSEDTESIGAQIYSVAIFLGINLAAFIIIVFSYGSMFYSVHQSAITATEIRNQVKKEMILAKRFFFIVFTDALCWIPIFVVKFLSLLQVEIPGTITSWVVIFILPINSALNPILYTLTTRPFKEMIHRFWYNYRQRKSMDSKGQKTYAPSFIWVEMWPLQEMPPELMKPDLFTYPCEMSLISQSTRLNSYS
Protocol: The ability of peptide analogs to activate cAMP in HEK-RXFP1 cells stably transfected with a pCRE β-gal reporter gene construct was tested as described in detail previously [13]. Cells were stimulated with increasing concentrations of peptide analogs in parallel to H2 relaxin (positive) or media (negative) controls, then incubated at 37 °C for 6 h, after which the media were aspirated, and the cells were frozen at −80 °C overnight. The following day, cAMP-driven β-gal expression was determined in cell lysates as described [32]. Experiments were performed in triplicate at least 3 times, and data were fitted to a four-parameter sigmoidal dose–response curve using GraphPad Prism 9 to determine ligand potency (pEC50).

7BP Eu-H2 pKi [1]: < 5
cAMP pEC50 [2]: No activity
Substance: B13-31: N-terminally truncated single-chain H2 relaxin analog, residues 13–31 (RELVRAQIAICGMSTWSKR; Relaxin B chain; UniProt P04090 37-55, looked up, fragment)
